Test results as given in patent publication US12123876B2, “Antibody binding to HEG1 and use of the antibody for detection and treatment of mesothelioma” (Kanagawa Prefectural Hospital Organization, priority 2016, dated 2024).

System: mesothelioma
Experiment: Immunohistological staining of mesothelioma tissue sections
Design: species or system human
Excerpt: For the detection of mesothelioma according to the present invention, the antibody according to the present invention or an antigen-binding fragment thereof is contacted with a sample. In the case that a sample separated from a living body such as cells, a tissue, or a tissue section is used, antibody reaction can be detected by using a method well known to those skilled in the art (e.g., an immunohistological staining method). If antibody reaction is then observed (e.g., in the case of a positive result), the subject from whom the sample is derived is likely to be affected with mesothelioma. Whether a result for antibody reaction is positive can be determined in accordance with an Allred Score method (see Allred D C et al., Mod Pathol, 11: 155-168, 1998). In the Allred Score method, for example, a total score is calculated from the following equation: Total score (TS)=Proportion score (PS)+Intensity score (IS) If the total score is 3 or more, then it can be determined that the result for reaction is positive. PS and IS can be determined from the following score tables. Score Tables for Allred Score Method Proportion Score, PS • 0: no staining • 1: a proportion of staining of less than 1% • 2: a proportion of staining of 1% or more and less than 10% • 3: a proportion of staining of 10% or more and less than ⅓ • 4: a proportion of staining of ⅓ or more and less than ⅔ • 5: a proportion of staining of ⅔ or more Intensity score, IS • 0: negative • 1: weak staining • 2: intermediate staining • 3: strong staining
AMeX-fixed cell precipitates or formalin-fixed tissues were paraffin-embedded to prepare thin sections. Each of the sections was fixed to a microscope slide, and subjected to deparaffinization and dehydration with xylene and ethanol, followed by activation of an antigen under different conditions. Each section was treated with 3% hydrogen peroxide for 5 minutes to deactivate endogenous peroxidase, and then washed with PBS and blocked with 0.5% casein for 10 minutes. After 100 μL of a solution containing a primary antibody was added to each section and treated at room temperature for 2 hours, the section was washed with PBS and allowed to develop color by using a Histofine Simple Stain MAX-PO (Multi) ([…] BIOSCIENCE INC.), Ventana ultraView DAB universal kit (Roche Diagnostics K. K.), or the EnVision+kits. Each section was stained with hematoxylin and then dehydrated, and encapsulated with Malinol (MUTO PURE CHEMICALS CO., LTD.) to observe under a microscope. The conditions for activation of an antigen were as follows: at 98° C. for 40 minutes for calretinin, mesothelin, and the SKM9-2 antigen; and at 95° C. for 64 minutes for cytokeratin 5/6 (CK5/6), podoplanin, and Wilms' tumor gene product 1 (WT-1). The following activation solutions were used: 10 mM Tris buffer (pH 9.0) containing 1 mM ethylenediamine tetraacetate (EDTA) for calretinin, CK5/6, and podoplanin; and 10 mM citrate buffer (pH 6.0) containing 0.1% TWEEN® 20 (polyethylene glycol sorbitan monolaurate, polyoxyethylenesorbitan monolaurate) for WT-1, mesothelin, and the SKM9-2 antigen. The following primary antibodies were used: a rabbit anti-calretinin polyclonal antibody (PAD:DC8) (Life Technologies Japan Ltd., Tokyo, Japan) for calretinin; a mouse anti-cytokeratin 5,6 monoclonal antibody (D5/16B4) ([…] BIOSCIENCE INC.) for CK5/6; a mouse anti-human mesothelin monoclonal antibody (5B2) (Leica Microsystems, Inc., Bannockburn, IL) for mesothelin; a mouse anti-podoplanin monoclonal antibody (D2-40) (Roche Diagnostics K. K.) for podoplanin; and a mouse anti-human WT-1 monoclonal antibody (6F-H2) (Roche Diagnostics K. K.) for WT-1.
Hereinafter, cases that the fraction of cells with scores of 1 or more determined in accordance with the Allred Score method was 10% or more in the cell were determined as positive.

B1: SKM9-2 antibody: mouse monoclonal IgG1 kappa antibody binding glycosylated HEG1; heavy chain SEQ ID NO: 2, light chain SEQ ID NO: 4 (antibody, listed as Mus musculus)
heavy: MGWSSIILFLVATTTGVHSQVQLQQPGAELVRPGASVKLSCKASGFSFTTYWITWVKQRPGQGLEWIGMIHPSDSETRLSQTFKDKATLTVDKSSNTAYMQFSSPTSEDSAVYYCVRDFDVWGAGTTVTVSSAKTTPPSVYPLAPGSAAQTNSMVTLGCLVKGYFPEPVTVTWNSGSLSSGVHTFPAVLQSDLYTLSSSVTVPSSTWPSETVTCNVAHPASSTKVDKKIVPRDCGCKPCICTVPEVSSVFIFPPKPKDVLTITLTPKVTCVVVDISKDDPEVQFSWFVDDVEVHTAQTQPREEQFNSTFRSVSELPIMHQDWLNGKEFKCRVNSAAFPAPIEKTISKTKGRPKAPQVYTIPPPKEQMAKDKVSLTCMITDFFPEDITVEWQWNGQPAENYKNTQPIMDTDGSYFVYSKLNVQKSNWEAGNTFTCSVLHEGLHNHHTEKSLSHSPGK
light: MKLPVRLLVLMFWIPASISDVLMTQTPLSLPVSLGDQASISCRSSQNIVHNNGNTYLGWYLQKPGQSPKLLIFKVSNRFSGVPDRFSGSGSGTDFTLKISRVEAEDLGVYYCFQGSHIPRTFGGGTRLEIKRADAAPTVSIFPPSSEQLTSGGASVVCFLNNFYPKDINVKWKIDGSERQNGVLNSWTDQDSKDSTYSMSSTLTLTKDEYERHNSYTCEATHKTSTSPIVKSFNRNEC
WDPM
  Staining of well-differentiated papillary mesothelioma (WDPM): one in one case
All mesothelioma types
  Sensitivity (%): 91.3%
Biphasic mesothelioma
  Detection of mesothelioma, Biphasic (positive cases/cases): 12/13
Desmoplastic mesothelioma
  Detection of mesothelioma, Desmoplastic (positive cases/cases): 3/4
Epithelial mesothelioma and sarcomatoid mesothelioma
  Staining of mesothelioma, representative images: successfully stained
Epithelial mesothelioma, positive = fraction of cells with Allred score 1 or more is 10% or more
  Detection of mesothelioma, Epithelial (positive cases/cases): 62/66
Sarcomatoid mesothelioma
  Detection of mesothelioma, Sarcomatoid (positive cases/cases): 7/9
